Measured values reported in patent US20260258142A1 (published 2026).

Target: Rabbit polyclonal Ab
Experiment: ELISA

B1: phosphorylated HisTAG-ΔPDGFRAaa1-528 (receptor)
chain: QLSLPSILPNENEKVVQLNSSFSLRCFGESEVSWQYPMSEEESSDVEIRNEENNSGLFVTVLEVSSASAAHTGLYTCYYNHTQTEENELEGRHIYIYVPDPDVAFVPLGMTDYLVIVEDDDSAIIPCRTTDPETPVTLHNSEGVVPASYDSRQGFNGTFTVGPYICEATVKGKKFQTIPFNVYALKATSELDLEMEALKTVYKSGETIVVTCAVFNNEVVDLQWTYPGEVKGKGITMLEEIKVPSIKLVYTLTVPEATVKDSGDYECAARQATREVKEMKKVTISVHEKGFIEIKPTFSQLEAVNLHEVKHFVVEVRAYPPPRISWLKNNLTLIENLTEITTDVEKIQEIRYRSKLKLIRAKEEDSGHYTIVAQNEDAVKSYTFELLTQVPSSILDLVDDHHGSTGGQTVRCTAEGTPLPDIEWMICKDIKKCNNETSWTILANNVSNIITEIHSRDRSTVEGRVTFAKVEETIAVRCLAKNLLGAENRELKLVAPTLRSELTVA
modifications: tyrosine-phosphorylated (ectopically, by MAN2A1-FER in HUH7 cells); sites recognised by the antibodies: pY118/pY120, pY342, pY375, pY391
Kd: 18.6 nM
